Laboratory results reported in article PMC5837041 (Molecular cell, 2017).
Each block holds one molecule with its values, some of them ahead of it.

Legend:
Vms1 (Vms1^1-417) = target: T1, Vms1 (Vms1^1-417) (Saccharomyces cerevisiae, UniProt Q04311); test: lipid blot on nitrocellulose; type: binding; settings: TBS pH 7.5, 4 °C, 3% BSA (blot); competitive with LRS for the MTD
T1 sequence (Q04311 1-417): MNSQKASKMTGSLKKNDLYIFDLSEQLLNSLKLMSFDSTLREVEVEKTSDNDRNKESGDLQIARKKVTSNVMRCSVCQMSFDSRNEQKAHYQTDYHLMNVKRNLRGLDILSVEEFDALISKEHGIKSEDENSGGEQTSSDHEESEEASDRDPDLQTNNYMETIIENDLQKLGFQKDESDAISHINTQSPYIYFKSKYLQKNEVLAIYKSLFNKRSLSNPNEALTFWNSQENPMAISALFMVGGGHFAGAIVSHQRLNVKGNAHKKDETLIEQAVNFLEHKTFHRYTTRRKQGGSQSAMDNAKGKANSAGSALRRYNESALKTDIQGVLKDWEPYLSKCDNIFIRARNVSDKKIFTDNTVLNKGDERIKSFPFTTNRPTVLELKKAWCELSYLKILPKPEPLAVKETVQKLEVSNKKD

[1] = target: T2, C-terminal fragment of PreScission-cleaved His10-Vms1(1-182-PP-417)-HA (S. cerevisiae, UniProt Q04311 183-417); test: SEC
T2 sequence (looked up): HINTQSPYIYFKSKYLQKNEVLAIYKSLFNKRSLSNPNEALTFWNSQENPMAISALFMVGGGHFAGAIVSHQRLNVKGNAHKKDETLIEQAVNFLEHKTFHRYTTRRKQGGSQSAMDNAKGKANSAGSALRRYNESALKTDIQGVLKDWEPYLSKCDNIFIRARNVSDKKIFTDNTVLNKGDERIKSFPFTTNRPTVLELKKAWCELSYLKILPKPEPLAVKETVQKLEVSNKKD

[2] = target: T3, C-terminal fragment of PreScission-cleaved His10-Vms1(1-182-PP-417, C387A, E25C, S228C)-HA (S. cerevisiae, UniProt Q04311 183-417, S228C | C387A); test: cross-linking
T3 sequence (looked up): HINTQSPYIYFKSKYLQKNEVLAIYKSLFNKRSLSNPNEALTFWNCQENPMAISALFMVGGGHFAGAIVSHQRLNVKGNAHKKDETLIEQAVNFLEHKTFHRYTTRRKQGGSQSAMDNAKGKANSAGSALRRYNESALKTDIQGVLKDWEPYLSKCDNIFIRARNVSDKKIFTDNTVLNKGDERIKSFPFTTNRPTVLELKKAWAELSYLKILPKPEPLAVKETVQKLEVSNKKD

[3] = target: T4, C-terminal fragment of PreScission-cleaved His10-Vms1(1-182-PP-417, C387A, K32C, T224C)-HA (S. cerevisiae, UniProt Q04311 183-417, T224C | C387A); test: cross-linking
T4 sequence (looked up): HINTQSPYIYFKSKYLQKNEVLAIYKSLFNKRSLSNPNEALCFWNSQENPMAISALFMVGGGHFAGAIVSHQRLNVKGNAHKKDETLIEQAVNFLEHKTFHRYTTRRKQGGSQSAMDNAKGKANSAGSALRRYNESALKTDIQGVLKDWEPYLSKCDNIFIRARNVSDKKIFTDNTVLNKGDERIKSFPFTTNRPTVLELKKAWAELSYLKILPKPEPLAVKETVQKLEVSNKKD

[4] = target: T5, C-terminal fragment of PreScission-cleaved His10-Vms1(1-182-PP-417, C387A, K32C, N218C)-HA (S. cerevisiae, UniProt Q04311 183-417, N218C | C387A); test: cross-linking
T5 sequence (looked up): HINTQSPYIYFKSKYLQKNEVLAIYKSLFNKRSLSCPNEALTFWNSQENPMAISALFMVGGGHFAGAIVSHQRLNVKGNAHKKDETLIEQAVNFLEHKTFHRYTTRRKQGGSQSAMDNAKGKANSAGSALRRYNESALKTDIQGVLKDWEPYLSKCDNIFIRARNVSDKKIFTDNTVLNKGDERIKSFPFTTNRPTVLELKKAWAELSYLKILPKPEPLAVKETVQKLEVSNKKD

Molecule: CC(C)[C@@H](C)/C=C/[C@@H](C)[C@H]1CC[C@@H]2[C@]1(C)CC[C@H]1[C@]23C=C[C@]2(C[C@@H](O)CC[C@]12C)OO3 [EP, ergosterol peroxide]
lipid blot on nitrocellulose; liposome floatation assay (Vms1 (Vms1^1-417)): Vms1 displayed comparable binding to nitrocellulose-spotted commercial EP and the purified C28H44O3

B3: N-terminal fragment of PreScission-cleaved His10-Vms1(1-182-PP-417, C387A, K32C, T224C or N218C)-HA (domain or fragment, S. cerevisiae, UniProt Q04311 1-182, looked up)
chain: MNSQKASKMTGSLKKNDLYIFDLSEQLLNSLCLMSFDSTLREVEVEKTSDNDRNKESGDLQIARKKVTSNVMRCSVCQMSFDSRNEQKAHYQTDYHLMNVKRNLRGLDILSVEEFDALISKEHGIKSEDENSGGEQTSSDHEESEEASDRDPDLQTNNYMETIIENDLQKLGFQKDESDAIS
binding result [3]: binds
binding result [4]: binds

Continued, values first:

binding result [1]: binds
B1: N-terminal fragment of PreScission-cleaved His10-Vms1(1-182-PP-417)-HA (domain or fragment, S. cerevisiae, UniProt Q04311 1-182, looked up)
chain: MNSQKASKMTGSLKKNDLYIFDLSEQLLNSLKLMSFDSTLREVEVEKTSDNDRNKESGDLQIARKKVTSNVMRCSVCQMSFDSRNEQKAHYQTDYHLMNVKRNLRGLDILSVEEFDALISKEHGIKSEDENSGGEQTSSDHEESEEASDRDPDLQTNNYMETIIENDLQKLGFQKDESDAIS

binding result [2]: binds
B2: N-terminal fragment of PreScission-cleaved His10-Vms1(1-182-PP-417, C387A, E25C, S228C)-HA (domain or fragment, S. cerevisiae, UniProt Q04311 1-182, looked up)
chain: MNSQKASKMTGSLKKNDLYIFDLSCQLLNSLKLMSFDSTLREVEVEKTSDNDRNKESGDLQIARKKVTSNVMRCSVCQMSFDSRNEQKAHYQTDYHLMNVKRNLRGLDILSVEEFDALISKEHGIKSEDENSGGEQTSSDHEESEEASDRDPDLQTNNYMETIIENDLQKLGFQKDESDAIS
